In paper PMC9638933:

Experiments:
Kucore;LIG = Kucore;LIG (Mycobacterium …, UniProt P9WKD9;P9WNV3 1-238;454-759, |); experiment: EMSA; supershift; EMSA: 50 mM Tris-HCl pH 8.0, 50 mM NaCl, 1 mM DTT, 5 mM MgCl2, 4% glycerol, 0.025 mg/ml BSA, 10 nM DNA, 30 C 20 min; FP: 10 mM Tris-HCl pH 8, 10 mM NaCl, 10% glycerol, 1 mM TCEP, 50 nM DNA, 30 C; ternary EMSA: 20 mM Tris-HCl pH 8.0, 5 mM MgCl2, 5% glycerol, 37 C; bridging: 20 mM Tris-HCl pH 7.5, 50 mM KCl, 5 mM EDTA, 1 mM DTT, 5% glycerol, 40 ug/ml BSA, room temperature; details: protein: recombinant;recombinant; tags: His (Ni-NTA purified; pMCSG7);His (Ni-NTA purified); chain copies: 2;1; label: 5' 6-FAM on strand 1; blunt
Sequence of Kucore;LIG (P9WNV3 454-759, one chain of several): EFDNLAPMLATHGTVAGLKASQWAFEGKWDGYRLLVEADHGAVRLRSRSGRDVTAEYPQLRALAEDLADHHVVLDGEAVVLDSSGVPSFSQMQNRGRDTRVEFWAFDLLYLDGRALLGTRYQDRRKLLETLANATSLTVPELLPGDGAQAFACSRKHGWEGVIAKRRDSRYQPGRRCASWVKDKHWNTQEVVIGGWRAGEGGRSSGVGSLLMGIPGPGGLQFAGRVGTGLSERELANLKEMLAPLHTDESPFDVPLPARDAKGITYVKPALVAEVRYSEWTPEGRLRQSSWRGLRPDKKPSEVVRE

Kumin;POL = Kumin;POL (Mycobacterium …, UniProt P9WKD9;P9WNV3 1-259;1-287, |); experiment: as above; details: protein: recombinant;recombinant; tags: His (Ni-NTA purified; pMCSG7);His (Ni-NTA purified); chain copies: 2;1; label: 5' 6-FAM on strand 1; blunt
Sequence of Kumin;POL (P9WNV3 1-287, one chain of several): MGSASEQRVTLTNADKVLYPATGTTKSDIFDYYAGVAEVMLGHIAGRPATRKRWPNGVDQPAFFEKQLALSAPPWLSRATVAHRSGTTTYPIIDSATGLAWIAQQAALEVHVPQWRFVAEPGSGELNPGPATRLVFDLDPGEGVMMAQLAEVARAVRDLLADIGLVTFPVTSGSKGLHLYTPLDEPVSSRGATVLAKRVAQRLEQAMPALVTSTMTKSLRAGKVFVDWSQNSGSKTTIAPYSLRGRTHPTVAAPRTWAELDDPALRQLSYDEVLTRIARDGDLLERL

KuWT;LIG = KuWT;LIG (Mycobacterium …, UniProt P9WKD9;P9WNV3 1-273;454-759, |); experiment: as above; details: protein: recombinant;recombinant; tags: His (Ni-NTA purified; pMCSG7);His (Ni-NTA purified); chain copies: 2;1; label: 5' 6-FAM on strand 1; blunt
Sequence of KuWT;LIG (P9WKD9 whole entry, chain 1 of 2): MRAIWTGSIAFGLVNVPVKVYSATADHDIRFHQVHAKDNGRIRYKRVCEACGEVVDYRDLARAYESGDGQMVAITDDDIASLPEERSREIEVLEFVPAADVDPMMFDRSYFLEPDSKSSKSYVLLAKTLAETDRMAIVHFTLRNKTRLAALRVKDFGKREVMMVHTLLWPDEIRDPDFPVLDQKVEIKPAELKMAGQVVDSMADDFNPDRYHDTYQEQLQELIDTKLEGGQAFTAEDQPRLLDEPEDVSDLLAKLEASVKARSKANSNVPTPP
Sequence of KuWT;LIG (P9WNV3 454-759, chain 2 of 2): as the sequence (P9WNV3 454-759, one chain of several) above

Kucore;LigD = Kucore;LigD (Mycobacterium …, UniProt P9WKD9;P9WNV3 1-238;1-759, |); experiment: EMSA; 10 uM Ku, 1 uM LigD; supershift; EMSA: 50 mM Tris-HCl pH 8.0, 50 mM NaCl, 1 mM DTT, 5 mM MgCl2, 4% glycerol, 0.025 mg/ml BSA, 10 nM DNA, 30 C 20 min; FP: 10 mM Tris-HCl pH 8, 10 mM NaCl, 10% glycerol, 1 mM TCEP, 50 nM DNA, 30 C; ternary EMSA: 20 mM Tris-HCl pH 8.0, 5 mM MgCl2, 5% glycerol, 37 C; bridging: 20 mM Tris-HCl pH 7.5, 50 mM KCl, 5 mM EDTA, 1 mM DTT, 5% glycerol, 40 ug/ml BSA, room temperature; details: protein: recombinant;recombinant; tags: His (Ni-NTA purified; pMCSG7);His (Ni-NTA purified; pMCSG7); chain copies: 2;1; label: 5' 6-FAM on strand 1; blunt
Sequence of Kucore;LigD (P9WKD9 1-238, chain 1 of 2): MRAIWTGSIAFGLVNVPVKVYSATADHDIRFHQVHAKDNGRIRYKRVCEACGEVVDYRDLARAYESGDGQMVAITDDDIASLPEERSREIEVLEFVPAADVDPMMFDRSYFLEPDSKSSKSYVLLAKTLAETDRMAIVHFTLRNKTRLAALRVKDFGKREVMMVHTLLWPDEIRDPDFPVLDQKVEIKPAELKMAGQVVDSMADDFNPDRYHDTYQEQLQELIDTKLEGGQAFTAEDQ
Sequence of Kucore;LigD (P9WNV3 whole entry, chain 2 of 2): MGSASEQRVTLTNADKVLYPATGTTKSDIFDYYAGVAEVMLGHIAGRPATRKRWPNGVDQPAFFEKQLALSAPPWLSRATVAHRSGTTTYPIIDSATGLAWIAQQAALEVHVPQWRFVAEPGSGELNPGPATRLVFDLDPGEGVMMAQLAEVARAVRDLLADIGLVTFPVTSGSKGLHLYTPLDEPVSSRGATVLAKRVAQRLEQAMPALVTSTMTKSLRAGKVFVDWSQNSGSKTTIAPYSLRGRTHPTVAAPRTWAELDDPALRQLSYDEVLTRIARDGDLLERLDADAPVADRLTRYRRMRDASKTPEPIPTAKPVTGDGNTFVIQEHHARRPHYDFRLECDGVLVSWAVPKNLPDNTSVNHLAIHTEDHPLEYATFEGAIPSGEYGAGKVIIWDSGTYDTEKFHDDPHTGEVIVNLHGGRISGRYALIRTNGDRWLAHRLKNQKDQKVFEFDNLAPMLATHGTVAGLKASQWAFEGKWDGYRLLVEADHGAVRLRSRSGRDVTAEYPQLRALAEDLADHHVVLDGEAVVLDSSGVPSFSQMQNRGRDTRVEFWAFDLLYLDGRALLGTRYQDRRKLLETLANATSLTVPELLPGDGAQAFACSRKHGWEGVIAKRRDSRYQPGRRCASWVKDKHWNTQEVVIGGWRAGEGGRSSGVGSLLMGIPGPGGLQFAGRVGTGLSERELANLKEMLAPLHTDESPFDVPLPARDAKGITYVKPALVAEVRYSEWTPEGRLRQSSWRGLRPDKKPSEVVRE

KuWT;LigD = KuWT;LigD (Mycobacterium …, UniProt P9WKD9;P9WNV3 1-273;1-759, |); experiment: as above; details: protein: recombinant;recombinant; tags: His (Ni-NTA purified; pMCSG7);His (Ni-NTA purified; pMCSG7); chain copies: 2;1; label: 5' 6-FAM on strand 1; blunt
Sequence of KuWT;LigD (P9WKD9 whole entry, chain 1 of 2): as the sequence (P9WKD9 whole entry, chain 1 of 2) above
Sequence of KuWT;LigD (P9WNV3 whole entry, chain 2 of 2): as the sequence (P9WNV3 whole entry, chain 2 of 2) above

Kumin;LigD = Kumin;LigD (Mycobacterium …, UniProt P9WKD9;P9WNV3 1-259;1-759, |); experiment: as above; details: protein: recombinant;recombinant; tags: His (Ni-NTA purified; pMCSG7);His (Ni-NTA purified; pMCSG7); chain copies: 2;1; label: 5' 6-FAM on strand 1; blunt
Sequence of Kumin;LigD (P9WKD9 1-259, chain 1 of 2): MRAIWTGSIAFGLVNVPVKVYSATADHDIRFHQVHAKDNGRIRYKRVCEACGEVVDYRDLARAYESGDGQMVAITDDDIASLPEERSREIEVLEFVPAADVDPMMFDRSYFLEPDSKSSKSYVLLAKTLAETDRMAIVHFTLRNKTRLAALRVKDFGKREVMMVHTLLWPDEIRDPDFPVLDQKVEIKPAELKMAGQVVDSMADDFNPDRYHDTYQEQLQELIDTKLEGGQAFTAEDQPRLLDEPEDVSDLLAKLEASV
Sequence of Kumin;LigD (P9WNV3 whole entry, chain 2 of 2): as the sequence (P9WNV3 whole entry, chain 2 of 2) above

Measured: binding result

B1: 40 bp dsDNA (dsDNA)
DNA 1: CAGGGTAAGTGTGGAGGTGTAGGGAAGGGAATGTTGTCTG
DNA 2: CAGACAACATTCCCTTCCCTACACCTCCACACTTACCCTG
binds: all assays above
